6 molecules from patent US20240092867A1 (UNIVERSITY OF CHICAGO, published 2024) can be followed below.

In assay [1] the target is T1, vascular endothelial growth factor (VEGF)-A165 (human, UniProt P15692-4 27-191).
T1 construct: mature; Purchased in mature form, not glycosylated
The assay can be described thus: ELISA; peptide coated at 10 µg/mL, 1 µg/mL VEGF-A165 in solution, bound GF detected with antibody [panel VEGF-A165]. The procedure: (§1) FIG. 9. […] Affinity of GFs against chemically synthesized peptides that are scrambled (Scr) the sequence of α3₃₀₄₃₋₃₀₆₂. ELISA plates were coated with 10 μg/mL laminin peptide and further incubated with VEGF-A165, PlGF-2, PDGF-BB, or FGF-2. Concentrations were 1 μg/mL for GFs. Bound GF was detected with a specific antibody for each GF (n=4, mean±SEM). Statistical analyses were done using one-way ANOVA. *p<0.05, **p<0.01. Sequence of the peptides are described in Table 2.
(§2) ELISA tests were performed as described above. […] 1 μg/mL of BSA served as non-binding protein control. After blocking with 2% BSA PBS-0.05% Tween 20 (PBS-T) solution, 1 μg/mL of the recombinant human proteins (VEGF-A121, VEGF-A165, PlGF-1, PlGF-2, PDGF-BB or FGF-2) or 10 μg/mL of biotinylated heparin (Sigma-Aldrich) were added. Bound GF was detected with biotinylated antibodies for human VEGF, PlGF, PDGF-BB, or FGF-2 (R&D Systems). The antibodies were detected by streptavidin-HRP (R&D Systems).
Target sequence in this assay (P15692 other isoform, or with tags, fused parts or gaps limits assumed): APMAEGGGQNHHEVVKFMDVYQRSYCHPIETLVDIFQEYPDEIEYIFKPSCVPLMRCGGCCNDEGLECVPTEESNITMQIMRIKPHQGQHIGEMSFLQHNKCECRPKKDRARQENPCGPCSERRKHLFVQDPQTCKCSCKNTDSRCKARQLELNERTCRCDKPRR
Background: ELISA stands for enzyme-linked immunosorbent assay.

Assay [2] has as its target T2, platelet-derived growth factor (PDGF)-BB (human, UniProt P01127 82-190).
T2 construct: mature; Purchased in mature form
Put plainly: ELISA; peptide coated at 10 µg/mL, 1 µg/mL PDGF-BB in solution, bound GF detected with antibody [panel PDGF-BB]. On the procedure: as §1, §2

The target of assay [3] is T3, placental growth factor (PlGF)-2 (human, UniProt P49763-3 19-170).
T3 construct: mature; Purchased in mature form
T3 sequence (looked up): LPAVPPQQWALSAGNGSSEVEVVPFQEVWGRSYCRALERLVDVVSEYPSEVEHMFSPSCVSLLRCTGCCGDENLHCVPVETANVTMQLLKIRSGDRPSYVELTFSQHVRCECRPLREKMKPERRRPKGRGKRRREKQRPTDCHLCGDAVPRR
Put plainly: ELISA; peptide coated at 10 µg/mL, 1 µg/mL PlGF-2 in solution, bound GF detected with antibody [panel PlGF-2]. On the procedure:
as §1, §2

Assay [4] deals with T4, fibroblast growth factor (FGF)-2 (human, UniProt P09038 143-288).
T4 construct: mature; Purchased in mature form
T4 sequence (P09038 143-288): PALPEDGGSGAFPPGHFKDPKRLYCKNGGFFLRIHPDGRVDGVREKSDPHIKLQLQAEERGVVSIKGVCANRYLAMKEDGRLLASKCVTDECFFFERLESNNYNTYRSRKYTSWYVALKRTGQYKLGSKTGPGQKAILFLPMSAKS
Put plainly: ELISA; peptide coated at 10 µg/mL, 1 µg/mL FGF-2 in solution, bound GF detected with antibody [panel FGF-2]. On the procedure:
as §1, §2

In the next assay the target is T5, human plasma-derived vWF (human, UniProt P04275 764-2813).
T5 construct: mature; also called plasma-derived purified vWF; von Willebrand factor
Put plainly: ELISA, GF coated 50 nM, vWF 1 µg/mL. The procedure: ELISA tests were performed as previously reported1. In brief, ELISA plates (med-binding, Greiner Bio-One) were coated with 50 nM GFs at 37° C. for 2 hrs. […] Then, HRP conjugated goat anti-rabbit antibody (Jackson ImmunoResearch) was added. After 60 min of incubation, 50 μL TMB substrate (Sigma-Aldrich) was added. The reaction was stopped by adding 25 μL of 2N H2SO4. Subsequently, the absorbance at 450 nm was measured and subtracted the absorbance at 570 nm.

A further assay has as its target T6, laminin-111 (human, UniProt P25391 18-3075; P07942 22-1786; P11047 34-1609).
T6 construct: Full-length recombinant human laminin isoform (BioLamina); Chain composition is read from the isoform name
The assay can be described thus: ELISA, GF coated, laminin 10 nM. On the procedure: (§3) ELISA tests were performed as previously reported. In brief, ELISA plates (med-binding, Greiner Bio-One) were coated with 50 nM GFs at 37° C. for more than 2 hrs. […] Bound laminin was detected with rabbit anti-human laminin γ1 chain antibody (1:1000 dilution, Assay biotech) or rabbit anti-human laminin α3 chain antibody (1:1000 dilution, Assay biotech). After incubation with biotinylated anti-rabbit antibody for 60 min at room temperature (RT), HRP conjugated streptavidin (Jackson ImmunoResearch) was added. After 60 min of incubation at RT, 50 μL TMB substrate (Sigma-Aldrich) was added. The reactions were stopped by adding 25 μL of 2 N H₂SO₄. Subsequently, the absorbance at 450 nm was measured with a reference of 570 nm.

A further assay addresses T7, laminin-332 (human, UniProt Q16787 28-1724; Q13751 18-1172; Q13753 22-1193, limits assumed).
T7 construct: Full-length recombinant human laminin isoform (BioLamina); chains read from the isoform name
Put plainly: ELISA, GF coated, laminin 10 nM. On the procedure: as §3

The next assay has as its target T8, laminin-411 (human, UniProt Q16363 25-1823; P07942 22-1786; P11047 34-1609).
T8 construct: Full-length recombinant human laminin isoform (BioLamina); chains read from the isoform name
Put plainly: ELISA, GF coated, laminin 10 nM. On the procedure: as §3

The target in the next assay is T9, laminin-211 (human, UniProt P24043 23-3122; P07942 22-1786; P11047 34-1609).
T9 construct: Full-length recombinant human laminin isoform (BioLamina); chains read from the isoform name
The assay can be described thus: ELISA, GF coated, laminin 10 nM. On the procedure:
as §3

Another assay has as its target T10, laminin-521 (human, UniProt O15230 36-3695; P55268 33-1798; P11047 34-1609).
T10 construct: Full-length recombinant human laminin isoform (BioLamina); chains read from the isoform name
The assay can be described thus: ELISA, GF coated, laminin 10 nM. The procedure:
as §3

For a further assay, the target named is T11, laminin-511 (human, UniProt O15230 36-3695; P07942 22-1786; P11047 34-1609).
T11 construct: Full-length recombinant human laminin isoform (BioLamina); chains read from the isoform name
Put plainly: ELISA, GF coated, laminin 10 nM. On the procedure: as §3

The next assay concerns the target T12, laminin-421 (human, UniProt Q16363 25-1823; P55268 33-1798; P11047 34-1609).
T12 construct: Full-length recombinant human laminin isoform (BioLamina); chains read from the isoform name
The assay can be described thus: ELISA, GF coated, laminin 10 nM. The procedure: as §3

Assay [5] addresses T3, placental growth factor (PlGF)-2. Put plainly: ELISA, peptide coated, GF 1 µg/mL. On the procedure:
(§4) (A) The location of laminin-derived peptides in the LG domain of laminin α3, α4, and α5 chains. (B-F) Affinity of heparin and GFs against chemically synthesized peptides derived from the LG domain of laminin α3, α4, and α5 chains. ELISA plates were coated with 10 μg/mL laminin peptide and further incubated with (B) biotinylated heparin, (C) VEGF-A165 and VEGF-A121, (D) PlGF-2 and PlGF-1, (E) PDGF-BB, or (F) FGF-2. Concentrations were 1 μg/mL for GFs and 10 μg/mL for heparin. Bound heparin was detected with streptavidin, and bound GFs with a specific antibody for each GF (n=4, mean±SEM). Statistical analyses were done using the Mann-Whitney U test by comparing the signals obtained from the laminin peptide- and the BSA-coated wells. *p<0.05, **p<0.01.
as §2

For assay [6], the target named is T4, fibroblast growth factor (FGF)-2. The assay can be described thus: ELISA, peptide coated, GF 1 µg/mL. On the procedure: as §4, §2
In assay [7] the target is T1, vascular endothelial growth factor …. Put plainly: ELISA, peptide coated, GF 1 µg/mL. On the procedure: as §4, §2
For assay [8], the target named is T13, vascular endothelial growth factor (VEGF)-A121 (human, UniProt P15692-9 27-147).
T13 construct: mature; Purchased in mature form, not glycosylated
T13 sequence (looked up): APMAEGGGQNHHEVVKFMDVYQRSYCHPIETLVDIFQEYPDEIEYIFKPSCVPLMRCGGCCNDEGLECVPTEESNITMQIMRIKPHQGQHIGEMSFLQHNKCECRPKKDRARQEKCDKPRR
The assay can be described thus: ELISA, peptide coated. The procedure:
as §4, §2

The target in assay [9] is T14, placental growth factor (PlGF)-1 (human, UniProt P49763-2 19-149).
T14 construct: mature; Purchased in mature form
T14 sequence (looked up): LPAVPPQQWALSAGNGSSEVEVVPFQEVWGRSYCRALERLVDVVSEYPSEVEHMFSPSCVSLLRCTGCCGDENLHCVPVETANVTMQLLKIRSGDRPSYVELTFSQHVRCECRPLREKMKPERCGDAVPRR
The assay can be described thus: ELISA, peptide coated. The procedure: as §4, §2

Assay [10] concerns the target T15, recombinant human syndecan-2 (human, UniProt P34741 19-144, limits assumed).
T15 construct: Histidine tag of unstated position and length
The assay can be described thus: ELISA, peptide coated, syndecan 1 µg/mL, anti-His detection. On the procedure: (§5) ELISA tests were performed as described above. In brief, ELISA plates were coated with 1 μg/mL laminin peptide (sequences are described in Table 1, chemically synthesized by Genscript) in PBS for 2 hrs at 37° C. 1 μg/mL of BSA served as non-binding protein control. After blocking with 2% BSA PBS-T solution, 1 μg/mL of the recombinant human syndecan-1, syndecan-2, syndecan-3, syndecan-4 (all syndecan proteins are histidine-tagged; SinoBiological) were added. Bound GF was detected with anti-histidine tag antibody (1:1000 dilution, BioLegend).

The target of assay [11] is T16, recombinant human syndecan-1 (human, UniProt P18827 23-254, limits assumed).
T16 construct: Histidine tag of unstated position and length
T16 sequence (looked up): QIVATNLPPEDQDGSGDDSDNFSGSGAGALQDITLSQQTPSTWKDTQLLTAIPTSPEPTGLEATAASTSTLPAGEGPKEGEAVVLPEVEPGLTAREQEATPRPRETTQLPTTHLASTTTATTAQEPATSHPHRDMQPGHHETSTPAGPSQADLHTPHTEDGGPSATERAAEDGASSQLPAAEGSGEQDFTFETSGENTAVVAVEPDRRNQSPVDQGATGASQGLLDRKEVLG
The description is as above. The procedure:
as §5

Assay [12] addresses T17, recombinant human syndecan-4 (human, UniProt P31431 19-145, limits assumed).
T17 construct: Histidine tag of unstated position and length
T17 sequence (looked up): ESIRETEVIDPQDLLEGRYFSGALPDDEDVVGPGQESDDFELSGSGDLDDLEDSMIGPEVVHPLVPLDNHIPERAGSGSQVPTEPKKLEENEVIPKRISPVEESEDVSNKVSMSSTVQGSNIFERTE
The assay is described as above. The procedure: as §5

T2 sequence (P01127 82-190): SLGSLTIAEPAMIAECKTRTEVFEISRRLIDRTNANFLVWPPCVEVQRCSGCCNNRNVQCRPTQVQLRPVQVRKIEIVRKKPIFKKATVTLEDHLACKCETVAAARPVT
T7 sequence (Q16787 other isoform, or with tags, fused parts or gaps limits assumed, chain 1 of 3): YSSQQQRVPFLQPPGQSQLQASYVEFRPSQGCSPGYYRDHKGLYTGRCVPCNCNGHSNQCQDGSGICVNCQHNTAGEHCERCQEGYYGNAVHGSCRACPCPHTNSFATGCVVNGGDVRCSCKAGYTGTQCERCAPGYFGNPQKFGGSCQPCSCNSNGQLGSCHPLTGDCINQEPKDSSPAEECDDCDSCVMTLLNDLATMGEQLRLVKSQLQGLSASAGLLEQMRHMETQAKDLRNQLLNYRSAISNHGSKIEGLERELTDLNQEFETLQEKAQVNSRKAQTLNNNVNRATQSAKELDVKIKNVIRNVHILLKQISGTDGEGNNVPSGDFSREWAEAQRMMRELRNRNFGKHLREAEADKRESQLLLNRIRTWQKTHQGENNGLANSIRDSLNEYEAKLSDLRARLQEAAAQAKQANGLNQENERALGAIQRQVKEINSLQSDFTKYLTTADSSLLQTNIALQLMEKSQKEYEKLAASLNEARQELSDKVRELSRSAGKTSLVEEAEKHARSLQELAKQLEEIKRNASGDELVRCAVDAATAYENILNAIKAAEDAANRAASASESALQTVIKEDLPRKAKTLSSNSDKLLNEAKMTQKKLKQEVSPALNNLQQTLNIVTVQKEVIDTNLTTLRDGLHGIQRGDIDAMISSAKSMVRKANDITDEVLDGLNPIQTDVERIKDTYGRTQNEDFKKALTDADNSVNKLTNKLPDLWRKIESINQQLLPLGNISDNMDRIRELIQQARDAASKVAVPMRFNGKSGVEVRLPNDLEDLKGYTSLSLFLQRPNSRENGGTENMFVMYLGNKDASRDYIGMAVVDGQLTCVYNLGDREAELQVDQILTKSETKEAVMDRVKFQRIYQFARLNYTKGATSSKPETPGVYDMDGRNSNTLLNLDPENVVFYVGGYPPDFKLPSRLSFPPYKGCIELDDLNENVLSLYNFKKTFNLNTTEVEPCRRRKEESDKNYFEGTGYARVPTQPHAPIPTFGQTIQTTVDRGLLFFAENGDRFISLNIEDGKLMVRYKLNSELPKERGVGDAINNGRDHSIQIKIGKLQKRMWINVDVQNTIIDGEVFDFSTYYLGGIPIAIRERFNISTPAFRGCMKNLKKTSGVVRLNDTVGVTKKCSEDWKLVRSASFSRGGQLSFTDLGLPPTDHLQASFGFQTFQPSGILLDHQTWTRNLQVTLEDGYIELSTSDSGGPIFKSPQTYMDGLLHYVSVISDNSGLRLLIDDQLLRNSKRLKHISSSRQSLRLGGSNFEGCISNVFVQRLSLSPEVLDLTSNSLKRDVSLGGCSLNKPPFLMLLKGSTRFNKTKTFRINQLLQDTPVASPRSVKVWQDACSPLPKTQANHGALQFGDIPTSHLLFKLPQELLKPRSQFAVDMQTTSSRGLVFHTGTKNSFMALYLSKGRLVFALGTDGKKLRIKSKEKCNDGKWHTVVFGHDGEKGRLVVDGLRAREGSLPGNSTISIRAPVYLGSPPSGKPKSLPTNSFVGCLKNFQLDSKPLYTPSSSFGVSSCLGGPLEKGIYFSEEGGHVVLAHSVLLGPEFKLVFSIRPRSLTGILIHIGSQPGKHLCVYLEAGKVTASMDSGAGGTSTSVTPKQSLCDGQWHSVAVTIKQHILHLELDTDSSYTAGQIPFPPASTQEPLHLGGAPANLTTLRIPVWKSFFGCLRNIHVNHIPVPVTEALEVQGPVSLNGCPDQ
T7 sequence (Q13751 18-1172 limits assumed, chain 2 of 3): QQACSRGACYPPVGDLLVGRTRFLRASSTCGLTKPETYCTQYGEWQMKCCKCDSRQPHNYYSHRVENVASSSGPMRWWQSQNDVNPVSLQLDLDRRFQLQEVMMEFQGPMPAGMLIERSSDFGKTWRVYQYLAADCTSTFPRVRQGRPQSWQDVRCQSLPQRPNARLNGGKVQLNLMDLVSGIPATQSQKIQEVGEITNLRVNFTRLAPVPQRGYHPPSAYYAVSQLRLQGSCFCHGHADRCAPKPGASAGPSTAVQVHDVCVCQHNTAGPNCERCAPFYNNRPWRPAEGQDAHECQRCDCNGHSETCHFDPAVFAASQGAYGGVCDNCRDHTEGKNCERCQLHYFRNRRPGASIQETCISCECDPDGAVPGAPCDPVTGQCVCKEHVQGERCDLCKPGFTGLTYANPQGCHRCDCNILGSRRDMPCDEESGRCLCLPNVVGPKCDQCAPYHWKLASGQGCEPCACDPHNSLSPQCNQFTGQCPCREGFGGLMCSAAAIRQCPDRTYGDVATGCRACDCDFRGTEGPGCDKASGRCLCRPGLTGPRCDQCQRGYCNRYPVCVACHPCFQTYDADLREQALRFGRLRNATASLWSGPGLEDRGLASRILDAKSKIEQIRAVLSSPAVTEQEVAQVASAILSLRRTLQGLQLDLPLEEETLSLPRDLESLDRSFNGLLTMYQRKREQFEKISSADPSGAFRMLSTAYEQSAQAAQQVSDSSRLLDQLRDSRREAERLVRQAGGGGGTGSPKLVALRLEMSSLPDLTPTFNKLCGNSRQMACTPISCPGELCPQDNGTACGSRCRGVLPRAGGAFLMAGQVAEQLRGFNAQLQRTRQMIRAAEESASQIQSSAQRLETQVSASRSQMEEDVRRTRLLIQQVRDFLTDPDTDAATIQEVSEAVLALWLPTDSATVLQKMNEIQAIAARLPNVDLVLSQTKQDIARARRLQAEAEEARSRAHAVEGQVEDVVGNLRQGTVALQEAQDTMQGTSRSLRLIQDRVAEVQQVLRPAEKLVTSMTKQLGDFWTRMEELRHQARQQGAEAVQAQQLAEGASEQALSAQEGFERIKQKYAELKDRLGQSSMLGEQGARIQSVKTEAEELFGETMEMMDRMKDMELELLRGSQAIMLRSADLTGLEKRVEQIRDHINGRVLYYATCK
T7 sequence (Q13753 22-1193 limits assumed, chain 3 of 3): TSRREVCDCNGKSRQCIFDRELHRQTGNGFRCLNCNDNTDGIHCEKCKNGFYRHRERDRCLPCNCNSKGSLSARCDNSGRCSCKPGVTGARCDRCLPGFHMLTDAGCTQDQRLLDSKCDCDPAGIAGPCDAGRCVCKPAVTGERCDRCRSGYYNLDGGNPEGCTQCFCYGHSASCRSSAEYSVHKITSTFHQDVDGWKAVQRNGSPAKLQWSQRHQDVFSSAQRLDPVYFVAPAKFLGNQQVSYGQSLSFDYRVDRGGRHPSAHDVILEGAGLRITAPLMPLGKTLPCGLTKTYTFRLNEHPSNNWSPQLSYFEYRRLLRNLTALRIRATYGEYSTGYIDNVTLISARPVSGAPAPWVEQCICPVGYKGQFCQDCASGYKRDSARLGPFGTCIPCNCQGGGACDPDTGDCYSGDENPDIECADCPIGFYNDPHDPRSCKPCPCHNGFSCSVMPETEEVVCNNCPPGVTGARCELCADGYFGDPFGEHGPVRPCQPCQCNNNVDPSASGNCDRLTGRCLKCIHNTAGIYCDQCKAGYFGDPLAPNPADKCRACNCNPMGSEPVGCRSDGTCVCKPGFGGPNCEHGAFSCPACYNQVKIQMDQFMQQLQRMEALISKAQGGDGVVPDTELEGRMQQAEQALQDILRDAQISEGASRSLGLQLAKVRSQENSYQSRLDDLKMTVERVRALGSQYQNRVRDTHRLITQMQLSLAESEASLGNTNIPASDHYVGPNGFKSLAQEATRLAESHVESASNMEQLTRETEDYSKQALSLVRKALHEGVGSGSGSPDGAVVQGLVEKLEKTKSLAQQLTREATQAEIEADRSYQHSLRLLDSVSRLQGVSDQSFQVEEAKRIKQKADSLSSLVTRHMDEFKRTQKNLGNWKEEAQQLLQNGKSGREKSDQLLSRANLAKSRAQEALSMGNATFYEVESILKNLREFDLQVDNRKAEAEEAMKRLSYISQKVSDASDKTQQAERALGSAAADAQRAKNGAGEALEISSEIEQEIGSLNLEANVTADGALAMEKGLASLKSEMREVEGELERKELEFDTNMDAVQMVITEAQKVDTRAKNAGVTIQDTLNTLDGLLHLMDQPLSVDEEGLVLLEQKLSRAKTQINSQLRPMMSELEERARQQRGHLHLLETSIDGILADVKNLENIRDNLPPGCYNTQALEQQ
T15 sequence (P34741 19-144 limits assumed): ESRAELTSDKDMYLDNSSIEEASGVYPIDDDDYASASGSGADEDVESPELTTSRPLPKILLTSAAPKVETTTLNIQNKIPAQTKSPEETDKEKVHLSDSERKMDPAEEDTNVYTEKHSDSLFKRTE

B1: α3 3043-3067 Scr6 (peptide)
peptide: ALLLGIGRDFNKKKRKKKSEVTDGC
notes: Scrambled peptide
On to B1, for which the binding result in [1], in assay [2], in assay [3] and in assay [4] was “binds” in each case.

B2: α3 3043-3067 Scr5 (peptide)
peptide: LVRAKLTDKFLGKRIGSKECNKDKG
notes: Scrambled peptide
Turning to B2, the binding result in assay [1], in assay [2], in [3] and in [4] was “binds” each time.

B3: fibroblast growth factor (FGF)-6 (ligand, UniProt P10767 38-208, looked up)
chain: SPAGTRANNTLLDSRGWGTLLSRSRAGLAGEIAGVNWESGYLVGIKRQRRLYCNVGIGFHLQVLPDGRISGTHEENPYSLLEISTVERGVVSLFGVRSALFVAMNSKGRLYATPSFQEECKFRETLLPNNYNAYESDLYQGTYIALSKYGRVKRGSKVSPIMTVTHFLPRI
notes: mature; Purchased in mature form
With B3, the binding result with human plasma-derived vWF was “no binding”; with laminin-111, “no binding (tested: A450 0.1)”; with laminin-332, “no binding (tested: A450 0.1)”; in the assay with laminin-411, “no binding (tested: A450 0.1)”; in the assay with laminin-211, “no binding (tested: A450 0.1)”; with laminin-521 it was “no binding (tested: A450 0.1)”. The binding result with laminin-511 and in the assay with laminin-421 was “no binding (tested: A450 0.1)” in each case.

B4: α3 3043-3067 Scr4 (peptide)
peptide: KKRKLVALTDFLGICGSENDGRKKK
notes: Scrambled peptide
B4: the binding result in [1], in [2], in assay [3] and in assay [4] was “binds” each time.

B5: bone morphogenetic protein (BMP)-4 (ligand, UniProt P12644 293-408, looked up)
chain: SPKHHSQRARKKNKNCRRHSLYVDFSDVGWNDWIVAPPGYQAFYCHGDCPFPLADHLNSTNHAIVQTLVNSVNSSIPKACCVPTELSAISMLYLDEYDKVVLKNYQEMVVEGCGCR
notes: as for B3
As to B5, the binding result in the assay with laminin-111, in the assay with laminin-332, with laminin-411, in the assay with laminin-211, with laminin-521 and with laminin-511 was “no binding (tested: A450 0.1)” each time. The binding result with laminin-421 was “no binding (tested: A450 0.1)”.

B6: laminin α4 1521-1543 peptide (LG4) (peptide)
peptide: TLFLAHGRLVYMFNVGHKKLKIR
notes: Chemically synthesized (Genscript)
Take B6: the binding result in assay [5] was “binds”; in assay [6], “binds”; in [7], “binds”; in [8], “no binding (tested: 1 µg/mL)”; in [9], “no binding (tested: 1 µg/mL)”; in assay [10], “binds”. The binding result in assay [11] and in assay [12] was “binds” throughout.
